The values below come from PMC11850223.

Series [1] addresses T1, trans-heterodimer Hera_1-419/Hera_370-510 (Thermus thermophilus, UniProt O07897;O07897 1-419;370-510).
T1 sequence 1: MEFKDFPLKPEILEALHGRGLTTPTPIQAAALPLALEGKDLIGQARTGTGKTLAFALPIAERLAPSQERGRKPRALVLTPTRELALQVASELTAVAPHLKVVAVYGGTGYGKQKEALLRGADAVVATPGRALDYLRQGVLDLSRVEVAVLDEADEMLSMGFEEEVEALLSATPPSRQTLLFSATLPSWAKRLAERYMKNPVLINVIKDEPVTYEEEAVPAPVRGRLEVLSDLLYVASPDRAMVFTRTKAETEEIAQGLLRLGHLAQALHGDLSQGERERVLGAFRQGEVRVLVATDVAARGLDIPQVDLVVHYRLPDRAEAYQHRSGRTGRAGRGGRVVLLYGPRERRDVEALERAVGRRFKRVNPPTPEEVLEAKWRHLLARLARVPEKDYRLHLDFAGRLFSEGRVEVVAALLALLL
T1 sequence 2: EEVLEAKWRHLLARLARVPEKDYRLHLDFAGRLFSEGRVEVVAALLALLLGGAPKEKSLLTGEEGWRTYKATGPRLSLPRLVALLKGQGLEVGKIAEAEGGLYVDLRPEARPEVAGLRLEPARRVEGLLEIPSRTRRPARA
Description: stopped-flow fluorescence.

The target of series [2] is T2, Hera_K51Q (Thermus thermophilus, UniProt O07897 1-510, K51Q).
T2 sequence: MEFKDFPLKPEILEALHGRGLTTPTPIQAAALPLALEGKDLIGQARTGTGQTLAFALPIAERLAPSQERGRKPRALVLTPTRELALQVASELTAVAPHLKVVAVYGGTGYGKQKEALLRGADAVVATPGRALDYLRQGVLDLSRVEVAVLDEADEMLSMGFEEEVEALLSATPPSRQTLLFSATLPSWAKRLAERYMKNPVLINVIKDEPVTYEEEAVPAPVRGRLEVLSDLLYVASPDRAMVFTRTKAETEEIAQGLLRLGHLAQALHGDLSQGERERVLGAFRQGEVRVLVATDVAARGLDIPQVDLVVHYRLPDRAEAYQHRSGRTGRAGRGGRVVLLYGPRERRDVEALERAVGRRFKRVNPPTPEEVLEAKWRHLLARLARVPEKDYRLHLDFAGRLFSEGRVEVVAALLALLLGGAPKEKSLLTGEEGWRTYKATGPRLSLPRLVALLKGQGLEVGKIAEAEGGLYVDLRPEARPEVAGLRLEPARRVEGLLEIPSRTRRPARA
The series is described as follows: stopped-flow fluorescence.

For series [3], the target named is T3, Hera (Thermus thermophilus, UniProt O07897 1-510).
T3 sequence: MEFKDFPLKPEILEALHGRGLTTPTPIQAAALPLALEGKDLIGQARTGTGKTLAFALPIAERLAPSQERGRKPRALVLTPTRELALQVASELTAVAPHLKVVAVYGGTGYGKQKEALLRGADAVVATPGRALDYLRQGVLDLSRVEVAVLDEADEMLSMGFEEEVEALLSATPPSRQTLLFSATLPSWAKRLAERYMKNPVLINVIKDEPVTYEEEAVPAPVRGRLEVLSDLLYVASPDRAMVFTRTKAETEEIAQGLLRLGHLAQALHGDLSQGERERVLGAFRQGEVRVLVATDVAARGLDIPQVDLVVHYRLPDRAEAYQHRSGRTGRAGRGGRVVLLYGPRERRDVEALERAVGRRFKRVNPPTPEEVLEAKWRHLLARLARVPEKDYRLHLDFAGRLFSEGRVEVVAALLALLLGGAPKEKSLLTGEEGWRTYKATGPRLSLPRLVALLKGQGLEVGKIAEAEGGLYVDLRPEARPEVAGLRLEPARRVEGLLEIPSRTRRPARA
Description: stopped-flow fluorescence.

Series [4] concerns the target T4, Hera/Hera_K51Q heterodimer (Thermus thermophilus, UniProt O07897;O07897 1-510;1-510, K51Q).
T4 sequence 1: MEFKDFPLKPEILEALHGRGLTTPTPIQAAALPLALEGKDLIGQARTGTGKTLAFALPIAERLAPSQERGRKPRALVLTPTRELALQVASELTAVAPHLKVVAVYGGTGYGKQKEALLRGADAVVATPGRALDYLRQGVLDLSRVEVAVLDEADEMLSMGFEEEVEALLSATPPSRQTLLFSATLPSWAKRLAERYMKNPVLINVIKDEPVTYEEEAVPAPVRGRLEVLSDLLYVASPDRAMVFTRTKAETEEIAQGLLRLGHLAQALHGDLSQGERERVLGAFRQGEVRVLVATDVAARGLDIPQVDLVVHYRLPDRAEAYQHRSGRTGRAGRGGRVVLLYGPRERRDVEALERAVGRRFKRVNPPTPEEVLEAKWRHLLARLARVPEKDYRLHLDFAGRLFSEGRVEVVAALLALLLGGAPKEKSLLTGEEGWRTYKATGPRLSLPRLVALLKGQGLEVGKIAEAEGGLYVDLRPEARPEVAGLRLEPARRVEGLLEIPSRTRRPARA
T4 sequence 2: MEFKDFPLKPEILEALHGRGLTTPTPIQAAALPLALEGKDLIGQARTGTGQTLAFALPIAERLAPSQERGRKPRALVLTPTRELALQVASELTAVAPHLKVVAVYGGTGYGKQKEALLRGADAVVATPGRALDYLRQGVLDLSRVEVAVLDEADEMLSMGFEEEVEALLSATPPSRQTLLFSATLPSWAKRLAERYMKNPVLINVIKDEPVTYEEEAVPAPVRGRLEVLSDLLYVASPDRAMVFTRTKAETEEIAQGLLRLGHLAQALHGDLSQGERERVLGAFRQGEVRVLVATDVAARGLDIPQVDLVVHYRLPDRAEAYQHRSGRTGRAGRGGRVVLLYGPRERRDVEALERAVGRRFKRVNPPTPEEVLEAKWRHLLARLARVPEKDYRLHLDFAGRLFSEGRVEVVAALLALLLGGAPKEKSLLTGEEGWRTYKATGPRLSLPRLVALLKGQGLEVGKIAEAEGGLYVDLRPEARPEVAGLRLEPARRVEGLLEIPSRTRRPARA
The series is described as follows: stopped-flow fluorescence.

For series [5], the target named is T2, Hera_K51Q. Description: fluorescence anisotropy. On the technique in general: In fluorescence polarisation assays a small probe gives low polarisation when free and higher when bound to something large.
The target in series [6] is T3, Hera. The series is described as follows: fluorescence anisotropy.
Series [7] concerns the target T4, Hera/Hera_K51Q heterodimer. Description: fluorescence anisotropy.
The target in series [8] is T5, cis-heterodimer Hera/Hera_208-419 (Thermus thermophilus, UniProt O07897;O07897 1-510;208-419).
T5 sequence 1: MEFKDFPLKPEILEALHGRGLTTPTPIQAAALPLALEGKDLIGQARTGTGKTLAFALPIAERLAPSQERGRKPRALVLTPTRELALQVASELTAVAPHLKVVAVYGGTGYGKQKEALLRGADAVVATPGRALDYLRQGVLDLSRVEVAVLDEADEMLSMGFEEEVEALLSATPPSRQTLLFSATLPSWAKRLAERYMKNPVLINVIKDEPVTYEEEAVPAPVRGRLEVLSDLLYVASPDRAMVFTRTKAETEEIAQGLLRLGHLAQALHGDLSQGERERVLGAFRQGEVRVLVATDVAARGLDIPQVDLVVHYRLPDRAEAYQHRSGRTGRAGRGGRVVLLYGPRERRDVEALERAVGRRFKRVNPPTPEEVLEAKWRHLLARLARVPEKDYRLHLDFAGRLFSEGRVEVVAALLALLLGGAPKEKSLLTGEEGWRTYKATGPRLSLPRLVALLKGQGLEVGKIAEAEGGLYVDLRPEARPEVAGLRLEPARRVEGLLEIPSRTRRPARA
T5 sequence 2: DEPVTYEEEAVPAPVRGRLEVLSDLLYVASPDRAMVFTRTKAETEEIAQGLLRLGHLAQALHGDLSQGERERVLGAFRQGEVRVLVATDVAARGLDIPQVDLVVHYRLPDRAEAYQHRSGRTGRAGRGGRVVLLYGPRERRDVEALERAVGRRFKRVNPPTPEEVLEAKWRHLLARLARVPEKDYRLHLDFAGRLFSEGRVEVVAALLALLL
Description: fluorescence anisotropy.

Consider GCAGGUCCCAAGGGUUGGGCUGUUCGCCCAUU (structured_RNA) [fl-32mer], for which the equilibrium dissociation constant (Kd) in series [1] was found to be 7.3 ± 1 µM; in series [2] it was 1500 ± 700 nM; in series [3], 490 ± 220 nM; in series [4], 130 ± 70 nM; in series [5], 170 ± 20 nM; in series [6] it was 60 ± 10 nM. The dissociation constant Kd in series [7] was 80 ± 20 nM; in series [8], 126 ± 9 nM.

As usually defined, the Kd is a measure of binding affinity in units of concentration. Read a high Kd as a looser complex.
